A short description of this data set: amyloid nucleation score (Sup35N fusion, yeast selection) (log enrichment); library NNK3; higher = more nucleation; inactive = no reads after selection. The essentials: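 The nucleation score equals the log enrichment of output over input reads from DiMSum, centred on the mode score of non-aggregating sequences. It was computed only for sequences with 100 or more input reads. The reads came from Illumina sequencing of plasmid inserts from psi-negative yeast expressing Sup35N fused to peptides of 20 random codons, induced with 100 μM copper sulfate for 24 hours and grown 7 days at 30°C without adenine and uracil.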

In the supplement of paper PMC12042874 one finds amyloid nucleation score data, which are given here for 97 substances.

± gives the uncertainty stated by the source.

For ISCPLYQGMGHLIH, the amyloid nucleation score result is “inactive”.

With WCRVIRTSGIYLGCASSGVV, the amyloid nucleation score result is “inactive”.

On to WSLPSRLIRDVGSSWIYFCL, for which the amyloid nucleation score entry is “inactive”.

Regarding VNESMNDIANRSDEGYFGCA, the amyloid nucleation score result was “inactive”.

ISWYVWRVMYMSCGWSIVFR: the amyloid nucleation score entry is “inactive”.

For the substance VMIFSCYSAYYPNLISHSRW, the amyloid nucleation score entry is “inactive”.

Regarding KSRSYPCIEPNV, the amyloid nucleation score result was “inactive”.

In the case of LHPLYRFSANSSKDLFTSRT, the amyloid nucleation score result is “inactive”.

Consider VSFVSSVIVDGMPEILSIRY, for which the amyloid nucleation score result was “inactive”.

On to SSVRRYHKLIKRRDYVAFNV, for which the amyloid nucleation score result was “inactive”.

The substance HLLTLTI came in with an amyloid nucleation score of 0.501 ± 0.26.

Turning to TEDGYNNEMSRQKVMVLINT, the amyloid nucleation score result was “inactive”.

As to CIPIMRTPLGTPSN, the amyloid nucleation score entry is “inactive”.

YQCSASFYRTNVGPSTGHQL displayed an amyloid nucleation score of 1.13 ± 0.11.

Substance KTLTGQFGCSTTALCNDVEC came in with an amyloid nucleation score of -0.515 ± 0.75.

For the substance YAFLTYFSKVIDSVF, the amyloid nucleation score was 1.33 ± 0.076.

LPICDQTIWFLPSRAVAGNV: the amyloid nucleation score result was “inactive”.

FNWLGLGLMLGIDRDRCDNV: the amyloid nucleation score result was “inactive”.

As for SKCVYAVWCACVFARF, the amyloid nucleation score entry was “inactive”.

Turning to IDQCNIVGTRKNGHAL, the amyloid nucleation score entry is “inactive”.

As to HFIKGGLHCVS, the amyloid nucleation score result was “inactive”.

As for PAVQGSKDAASSAERCACQR, the amyloid nucleation score entry is “inactive”.

In turn, RLVVLMCCIGYFGPADMNFA displayed an amyloid nucleation score of 2.66 ± 0.08.

For the substance ASDSDTCCGFVRGAVYWRLT, the amyloid nucleation score is -0.117 ± 0.84.

In the case of SSNRGFIIMFEFLASWGFLA, the amyloid nucleation score result was “inactive”.

For the substance VVLCVLEYYKFF, the amyloid nucleation score was 0.848 ± 0.25.

For FSFITL, the amyloid nucleation score result is “inactive”.

Take NVCAVNFAWSITIWRYNY: the amyloid nucleation score result was “inactive”.

Turning to YCTYN, the amyloid nucleation score entry is “inactive”.

Take IPVSHVAMNGECGWVSDIKH: the amyloid nucleation score entry is “inactive”.

For MKLEEELSYRFRRSWFYALW, the amyloid nucleation score entry is “inactive”.

For the substance NVADALS, the amyloid nucleation score result is “inactive”.

On to SLCFGTP, for which the amyloid nucleation score result was “inactive”.

In the case of YSRGV, the amyloid nucleation score entry is “inactive”.

As for LAVYPTGTDRDFGF, the amyloid nucleation score result is “inactive”.

For TGSTDRHYGRYIGWGANSRF, the amyloid nucleation score entry was “inactive”.

Regarding SQYTRCSVYIVW, the amyloid nucleation score stood at 1.43 ± 0.079.

On to SWVYGSSDPSRVSSCLVGVL, for which the amyloid nucleation score entry was “inactive”.

With ISMLMFDLA, the amyloid nucleation score entry is “inactive”.

Take FCSLIKYSQNYYNPLAHTVL: the amyloid nucleation score entry is “inactive”.

Take FADYFASSIFWYRCASHLGW: the amyloid nucleation score entry was “inactive”.

On to RNNCCAKVIYKWLSTFGQTD, for which the amyloid nucleation score result was “inactive”.

Substance TSVNVWFPFLGVREGFGCSP came in with an amyloid nucleation score of 1.37 ± 0.15.

In turn, ASWFYNIKKLNCCHFVQFAD displayed an amyloid nucleation score of 1.64 ± 0.09.

In turn, MWYLTDWIDCFCLSNMNICT came in with an amyloid nucleation score of 1.81 ± 0.063.

Turning to SIFRKINMYL, the amyloid nucleation score result is “inactive”.

In the case of VVNKPIHISSTYTLYSVVLA, the amyloid nucleation score entry was “inactive”.

For WCDLRFISWSFSVFWCV, the amyloid nucleation score entry is “inactive”.

For NESFGTARSAGDGMKNVPGP, the amyloid nucleation score entry is “inactive”.

Turning to YTRGTWS, the amyloid nucleation score entry is “inactive”.

For the substance LCFNCGVFCFFFRVGETTNW, the amyloid nucleation score was found to be 2.84 ± 0.056.

As to CLYSSCALGIARDWVVLL, the amyloid nucleation score entry was “inactive”.

For MRFDNVTMRVLLCFS, the amyloid nucleation score result is “inactive”.

On to VTQMKNTLY, for which the amyloid nucleation score result is “inactive”.

In the case of SSDGFCLVIVYVCPSWYMLV, the amyloid nucleation score entry is “inactive”.

Take EVLYYRFLF: the amyloid nucleation score result is “inactive”.

Consider LFIRQG, for which the amyloid nucleation score entry is “inactive”.

For the substance LREYFMFPRVHNLFNLV, the amyloid nucleation score entry is “inactive”.

As for ASVPAN, the amyloid nucleation score entry is “inactive”.

For IGYTRLLFLMDVTVGIRVGW, the amyloid nucleation score result was “inactive”.

As for RDSFTVIVSSSSPMPKLVPE, the amyloid nucleation score result was “inactive”.

Regarding LTDRQVCNLIWNNAYGFLC, the amyloid nucleation score stood at 0.257 ± 0.52.

As for PVYVG, the amyloid nucleation score result is “inactive”.

For the substance SILKGGFCYMNFRSGKWGV, the amyloid nucleation score result is “inactive”.

As to FFLTLGYVVGYQRWSYILWR, the amyloid nucleation score entry was “inactive”.

Regarding QDFYFISILACGYIWH, the amyloid nucleation score entry was “inactive”.

Turning to FEIYECQLAC, the amyloid nucleation score entry was “inactive”.

As for FNAGYWGMSSKVSNESRWVY, the amyloid nucleation score entry was “inactive”.

For PYRGSPACMGDYGNQVGNGS, the amyloid nucleation score entry is “inactive”.

As to RVRVNPSVHRRPRYGND, the amyloid nucleation score result was “inactive”.

On to WCGQWWLLASGVQSFQCCVY, for which the amyloid nucleation score came to 1.39 ± 0.13.

Turning to KVRNPWMRIDTVCRFFILVV, the amyloid nucleation score result was “inactive”.

On to PCMNGVASFWNCGIKIFGSF, for which the amyloid nucleation score result was “inactive”.

Take KIKSLELMYDISERNF: the amyloid nucleation score entry was “inactive”.

LIGNTSGMILHSTITDEAWL: the amyloid nucleation score entry was “inactive”.

Turning to HHLGRSLGIVTSLQLGIILL, the amyloid nucleation score result is “inactive”.

On to YVSLCTTPVGERTSYSCDIH, for which the amyloid nucleation score result was “inactive”.

As to TEFKAFHNCQINRSDTTLWL, the amyloid nucleation score was determined as 0.096 ± 0.68.

As for FSCDIAVILNLDLTMVDLLF, the amyloid nucleation score result is “inactive”.

Regarding VHFSVMVGKKDDPSLF, the amyloid nucleation score entry is “inactive”.

Substance NVTDVMRNISMTQLMFYLFA displayed an amyloid nucleation score of 1.74 ± 0.062.

With RDTYMGREVCFNNTPERF, the amyloid nucleation score came to 0.21 ± 0.77.

In the case of NYNCVVDNLSGKCMNEILGY, the amyloid nucleation score was 1.09 ± 0.097.

Turning to VQRISTIMINV, the amyloid nucleation score result was “inactive”.

With TLHWCMVSNHRAKCYCLFET, the amyloid nucleation score was 0.472 ± 0.42.

On to ISIGYEQFLDSCNLLSIYLT, for which the amyloid nucleation score entry was “inactive”.

For LVFSTSLH, the amyloid nucleation score entry was “inactive”.

Consider KMKCRVIYVLSSLIYCM, for which the amyloid nucleation score entry is “inactive”.

As for YNSLRGR, the amyloid nucleation score result is “inactive”.

Regarding TGSVVRDMVMAFTD, the amyloid nucleation score was -0.458 ± 0.93.

With VLCCANKYSFTNQQSGSASE, the amyloid nucleation score was 0.952 ± 0.1.

Consider MSLRLVMWFSNLVSYTV, for which the amyloid nucleation score entry is “inactive”.

Turning to PNRQDYIVTYLGIPNFLSTW, the amyloid nucleation score entry was “inactive”.

Take WILSYLDNCARSRQ: the amyloid nucleation score result was “inactive”.

On to RALKRFYNVIFYFRSYVPVS, for which the amyloid nucleation score entry is “inactive”.

On to LSSMWWLVRFYNFAF, for which the amyloid nucleation score result is “inactive”.

For NMHRNSSIRDRSVIRTWGMV, the amyloid nucleation score entry was “inactive”.
